Laboratory results published in publication PMC6420622, “Mutations in the PKM2 exon-10 region are associated with reduced allostery and increased nuclear translocation” (Communications Biology, 2019).

Target: the molecule itself
Assay: crystal structure; PKM2 variant with Ser and FBP; hanging drop, 0.1 M Tris pH 7.5, 0.2 M NaCl, 14% PEG 3350, 4 °C; molecular replacement with PDB 4B2D

B1: His-tagged PKM2 R399E (enzyme)
chain: not shown
notes: Pyruvate kinase isoform M2 (PKM2), engineered mutant R399E; full-length cDNA in pET28a, site-directed mutagenesis; Crystallised with Ser and FBP (PDB 5X0I); also called His-PKM2 R399E; source: E. coli BL21 (DE3), purified (cobalt-chelated TALON resin)
Does B1 bind?
Result: binds
